Experimental data from the supplement of paper PMC10065799, “High-throughput profiling of sequence recognition by tyrosine kinases and SH2 domains using bacterial peptide display” (eLife, 2023).

Assays:
Grb2 SH2 = Grb2 SH2 (UniProt P62993); experiment: SH2 binding enrichment of the phosphorylated peptide, bacterial display (enrichment ratio); higher = better substrate or ligand; peptides without Tyr show the background
c-Src SH2 = experiment: as above
SHP2-C SH2 = experiment: as above
EPHB2 = EPHB2 (UniProt P29323); experiment: phosphorylation enrichment, bacterial display (enrichment ratio); higher = better substrate or ligand; peptides without Tyr show the background
EPHB2, sequence (P29323 whole entry, looked up): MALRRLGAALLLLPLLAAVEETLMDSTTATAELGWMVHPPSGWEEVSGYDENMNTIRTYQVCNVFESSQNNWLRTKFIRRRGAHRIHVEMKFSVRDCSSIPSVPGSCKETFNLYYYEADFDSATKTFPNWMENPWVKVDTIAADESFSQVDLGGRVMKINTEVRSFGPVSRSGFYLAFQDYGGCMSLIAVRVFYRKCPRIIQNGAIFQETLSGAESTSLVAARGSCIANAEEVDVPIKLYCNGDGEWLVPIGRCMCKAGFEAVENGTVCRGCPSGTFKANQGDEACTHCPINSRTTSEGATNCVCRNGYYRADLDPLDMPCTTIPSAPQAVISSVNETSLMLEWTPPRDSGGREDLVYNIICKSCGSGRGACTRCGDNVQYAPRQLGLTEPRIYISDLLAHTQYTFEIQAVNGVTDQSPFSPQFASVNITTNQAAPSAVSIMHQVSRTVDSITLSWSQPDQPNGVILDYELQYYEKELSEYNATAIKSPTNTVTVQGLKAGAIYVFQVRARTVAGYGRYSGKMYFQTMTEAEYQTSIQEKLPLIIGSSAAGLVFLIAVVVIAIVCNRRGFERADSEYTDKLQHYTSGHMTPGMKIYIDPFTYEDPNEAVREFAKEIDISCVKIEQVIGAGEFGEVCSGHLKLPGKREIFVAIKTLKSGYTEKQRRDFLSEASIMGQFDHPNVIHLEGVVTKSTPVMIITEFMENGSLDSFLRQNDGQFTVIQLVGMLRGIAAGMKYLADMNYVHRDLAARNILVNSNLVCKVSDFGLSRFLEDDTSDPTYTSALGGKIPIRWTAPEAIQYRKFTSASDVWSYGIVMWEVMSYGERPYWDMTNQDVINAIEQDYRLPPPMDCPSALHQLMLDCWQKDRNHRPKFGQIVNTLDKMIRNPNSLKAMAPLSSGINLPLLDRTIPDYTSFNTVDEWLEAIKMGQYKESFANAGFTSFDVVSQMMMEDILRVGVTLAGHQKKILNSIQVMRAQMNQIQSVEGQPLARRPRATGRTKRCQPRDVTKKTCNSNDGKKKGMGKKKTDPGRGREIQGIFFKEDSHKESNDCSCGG

EPHB1 = EPHB1 (UniProt P54762); experiment: as above
FGFR3 = FGFR3 (UniProt P22607); experiment: as above
MERTK = MERTK (UniProt Q12866); experiment: as above
MERTK, sequence (Q12866 whole entry, looked up): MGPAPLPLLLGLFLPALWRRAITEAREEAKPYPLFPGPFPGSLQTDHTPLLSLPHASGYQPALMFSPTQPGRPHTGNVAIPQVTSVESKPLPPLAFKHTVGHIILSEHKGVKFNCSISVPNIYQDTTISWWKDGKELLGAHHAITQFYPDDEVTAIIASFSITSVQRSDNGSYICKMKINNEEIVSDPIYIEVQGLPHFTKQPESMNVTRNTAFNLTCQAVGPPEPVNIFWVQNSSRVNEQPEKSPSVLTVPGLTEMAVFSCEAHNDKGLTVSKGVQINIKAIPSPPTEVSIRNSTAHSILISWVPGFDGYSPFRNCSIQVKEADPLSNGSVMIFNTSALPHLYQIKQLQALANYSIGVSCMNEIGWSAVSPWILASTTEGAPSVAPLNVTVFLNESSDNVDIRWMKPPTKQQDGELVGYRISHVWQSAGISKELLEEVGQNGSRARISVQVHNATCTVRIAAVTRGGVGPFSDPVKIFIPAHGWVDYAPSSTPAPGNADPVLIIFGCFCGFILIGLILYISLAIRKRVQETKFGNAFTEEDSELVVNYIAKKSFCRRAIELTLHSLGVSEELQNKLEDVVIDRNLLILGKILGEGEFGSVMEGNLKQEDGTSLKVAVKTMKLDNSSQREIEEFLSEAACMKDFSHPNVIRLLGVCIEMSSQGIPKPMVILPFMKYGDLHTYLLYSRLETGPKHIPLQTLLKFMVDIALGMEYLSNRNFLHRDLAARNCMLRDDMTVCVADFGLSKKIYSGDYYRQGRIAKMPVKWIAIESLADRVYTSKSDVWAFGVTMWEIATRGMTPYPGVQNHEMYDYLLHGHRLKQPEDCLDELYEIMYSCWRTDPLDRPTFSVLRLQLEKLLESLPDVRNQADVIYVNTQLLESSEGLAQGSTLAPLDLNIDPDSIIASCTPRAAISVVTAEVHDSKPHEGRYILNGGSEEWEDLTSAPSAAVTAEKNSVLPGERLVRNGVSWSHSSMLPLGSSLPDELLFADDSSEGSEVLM

c-Src = experiment: as above
c-Abl (mouse) = experiment: as above
Hck = Hck (UniProt P08631); experiment: as above
Jak2 = Jak2 (UniProt O60674); experiment: as above
Jak2, sequence (O60674 whole entry, looked up): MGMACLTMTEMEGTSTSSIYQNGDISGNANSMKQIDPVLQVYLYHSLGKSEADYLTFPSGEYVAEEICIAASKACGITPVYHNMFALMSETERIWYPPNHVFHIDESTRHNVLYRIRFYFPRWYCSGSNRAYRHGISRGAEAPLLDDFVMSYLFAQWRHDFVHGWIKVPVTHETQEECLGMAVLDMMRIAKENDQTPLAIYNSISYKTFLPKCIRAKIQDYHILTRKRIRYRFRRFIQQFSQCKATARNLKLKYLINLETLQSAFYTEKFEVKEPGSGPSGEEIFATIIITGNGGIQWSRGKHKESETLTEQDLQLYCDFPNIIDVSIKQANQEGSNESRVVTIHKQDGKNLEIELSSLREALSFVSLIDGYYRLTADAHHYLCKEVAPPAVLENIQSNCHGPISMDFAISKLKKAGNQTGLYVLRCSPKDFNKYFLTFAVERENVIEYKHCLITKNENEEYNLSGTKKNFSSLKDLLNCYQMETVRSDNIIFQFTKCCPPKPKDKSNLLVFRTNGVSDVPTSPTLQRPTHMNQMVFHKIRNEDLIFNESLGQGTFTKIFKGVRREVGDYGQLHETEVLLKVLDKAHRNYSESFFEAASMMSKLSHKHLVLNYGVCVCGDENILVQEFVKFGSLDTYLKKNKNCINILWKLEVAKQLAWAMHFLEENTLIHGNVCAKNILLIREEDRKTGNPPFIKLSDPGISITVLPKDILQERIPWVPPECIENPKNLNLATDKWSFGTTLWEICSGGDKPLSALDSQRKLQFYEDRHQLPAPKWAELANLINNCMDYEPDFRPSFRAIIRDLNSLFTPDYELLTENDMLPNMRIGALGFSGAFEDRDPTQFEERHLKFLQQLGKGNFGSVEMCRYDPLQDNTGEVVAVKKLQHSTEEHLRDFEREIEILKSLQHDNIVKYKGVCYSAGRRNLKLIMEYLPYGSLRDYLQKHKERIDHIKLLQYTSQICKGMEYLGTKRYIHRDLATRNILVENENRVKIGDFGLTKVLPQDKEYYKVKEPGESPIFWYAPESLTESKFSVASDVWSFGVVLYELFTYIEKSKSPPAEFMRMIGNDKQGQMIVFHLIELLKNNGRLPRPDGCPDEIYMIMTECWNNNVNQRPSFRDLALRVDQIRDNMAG

Fes = Fes (UniProt P07332); experiment: as above
Fyn = Fyn (UniProt P06241); experiment: as above
Fyn, sequence (P06241 whole entry, looked up): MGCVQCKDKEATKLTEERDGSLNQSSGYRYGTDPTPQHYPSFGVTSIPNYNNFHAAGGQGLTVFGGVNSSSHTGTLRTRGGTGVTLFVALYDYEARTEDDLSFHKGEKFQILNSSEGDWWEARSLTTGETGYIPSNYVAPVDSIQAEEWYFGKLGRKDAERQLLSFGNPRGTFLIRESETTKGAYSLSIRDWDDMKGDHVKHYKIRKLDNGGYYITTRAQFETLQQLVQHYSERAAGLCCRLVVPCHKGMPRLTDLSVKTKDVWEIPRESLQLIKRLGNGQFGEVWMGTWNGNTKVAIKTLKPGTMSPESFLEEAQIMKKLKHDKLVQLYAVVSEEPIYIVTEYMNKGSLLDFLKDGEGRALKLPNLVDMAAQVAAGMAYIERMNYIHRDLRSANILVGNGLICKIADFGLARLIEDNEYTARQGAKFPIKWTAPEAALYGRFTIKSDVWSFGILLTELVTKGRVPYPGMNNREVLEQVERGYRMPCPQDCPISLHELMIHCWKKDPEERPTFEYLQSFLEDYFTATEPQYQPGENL

Fer (mouse) = experiment: as above
AncSZ = experiment: as above
FGFR1 = FGFR1 (UniProt P11362); experiment: as above
FGFR1, sequence (P11362 whole entry, looked up, the tested form may be a part): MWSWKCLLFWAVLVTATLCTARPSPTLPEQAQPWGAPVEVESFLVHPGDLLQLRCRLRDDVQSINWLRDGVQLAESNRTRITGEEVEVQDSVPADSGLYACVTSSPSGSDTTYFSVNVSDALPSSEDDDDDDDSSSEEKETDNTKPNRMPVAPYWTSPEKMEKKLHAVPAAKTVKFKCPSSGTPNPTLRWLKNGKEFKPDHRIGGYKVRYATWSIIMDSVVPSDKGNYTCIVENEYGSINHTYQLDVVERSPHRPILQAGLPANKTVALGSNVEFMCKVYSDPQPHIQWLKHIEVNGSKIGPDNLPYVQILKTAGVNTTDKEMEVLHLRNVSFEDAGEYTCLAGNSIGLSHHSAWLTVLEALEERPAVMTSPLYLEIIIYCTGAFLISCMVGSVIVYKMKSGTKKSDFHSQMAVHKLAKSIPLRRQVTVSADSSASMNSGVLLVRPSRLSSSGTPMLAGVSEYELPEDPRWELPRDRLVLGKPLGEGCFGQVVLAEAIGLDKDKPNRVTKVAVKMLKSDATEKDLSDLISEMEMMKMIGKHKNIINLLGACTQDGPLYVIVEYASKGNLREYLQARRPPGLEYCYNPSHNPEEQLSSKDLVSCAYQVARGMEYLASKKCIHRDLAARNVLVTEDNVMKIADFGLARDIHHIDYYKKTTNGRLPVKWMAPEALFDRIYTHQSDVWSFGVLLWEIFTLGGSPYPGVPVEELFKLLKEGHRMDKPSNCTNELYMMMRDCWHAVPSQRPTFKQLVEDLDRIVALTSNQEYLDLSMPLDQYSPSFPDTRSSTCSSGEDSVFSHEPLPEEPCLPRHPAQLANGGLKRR
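Throughout, for SH2 binding enrichment of the phosphorylated peptide, bacterial display: peptide library displayed on the E. coli surface as eCPX fusions, selected cells deep-sequenced, score is each peptide's frequency after selection divided by its frequency in the input.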
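Throughout, for phosphorylation enrichment, bacterial display: 11-residue human phosphosite peptides and single-mutation variants displayed on the E. coli surface, counted by deep sequencing, each peptide's frequency after selection divided by its frequency in the unselected input library; frequency after pTyr selection over input frequency; kinase dosed for 20-30% of maximal phosphorylation in three min.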

Grb2 SH2, sequence (P62993 whole entry, looked up): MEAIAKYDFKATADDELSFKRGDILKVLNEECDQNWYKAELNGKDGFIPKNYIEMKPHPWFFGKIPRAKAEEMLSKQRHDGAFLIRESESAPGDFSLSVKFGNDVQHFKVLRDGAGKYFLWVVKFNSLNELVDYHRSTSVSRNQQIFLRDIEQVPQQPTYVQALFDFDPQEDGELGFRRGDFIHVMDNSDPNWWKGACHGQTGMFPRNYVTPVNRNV

| Sequence | SH2 binding enrichment (Grb2 SH2) | SH2 binding enrichment (c-Src SH2) | SH2 binding enrichment (SHP2-C SH2) | phosphorylation enrichment (EPHB2) | phosphorylation enrichment (EPHB1) | phosphorylation enrichment (FGFR3) | phosphorylation enrichment (MERTK) | phosphorylation enrichment (c-Src) | phosphorylation enrichment (c-Abl (mouse)) | phosphorylation enrichment (Hck) | phosphorylation enrichment (Jak2) | phosphorylation enrichment (Fes) | phosphorylation enrichment (Fyn) | phosphorylation enrichment (Fer (mouse)) | phosphorylation enrichment (AncSZ) | phosphorylation enrichment (FGFR1) |
| --- | --- | --- | --- | --- | --- | --- | --- | --- | --- | --- | --- | --- | --- | --- | --- | --- |
| ENELTYYCCKK [CD59_Y86] | 0.953 | 0.483 | 0.82 | 0.97 | 0.505 | 1.22 | 1.08 | 2.74 | 1.26 | 2.47 | 1.77 | 0.955 | 1.72 | 0.779 | 1.57 | 2.21 |
| EPSVDCCVVKI [CAD_Y735_Y735C] | 0.887 | 0.494 | 1 | 0.499 | 0.449 | 0.586 | 0.376 | 0.369 | 0.816 | 0.371 | 1.01 | 1.18 | 0.336 | 0.411 | 1.07 | 0.432 |
| EPTPSYEVGQR [TSC2_Y1788_G1787S] | 0.827 | 0.533 | 0.738 | 0.426 | 0.443 | 0.581 | 0.383 | 0.428 | 0.627 | 0.486 | 0.686 | 0.895 | 0.427 | 0.408 | 0.726 | 0.462 |
| EPYEVYRIVPE [IRF8_Y110_K108E] | 0.981 | 0.578 | 0.758 | 1.9 | 1.45 | 3.35 | 1.05 | 6.54 | 1.25 | 4.62 | 0.994 | 1.15 | 6.69 | 8.85 | 3.39 | 4.53 |
| EQAERYDDMAA [YWHAG_Y20] | 0.966 | 1.3 | 0.617 | 0.51 | 0.508 | 0.737 | 0.407 | 0.426 | 0.653 | 0.501 | 0.87 | 1.03 | 0.537 | 0.501 | 1.22 | 0.547 |
| EQKKFYNATKK [SCN5A_Y1495_M1498T_YF] | 0.996 | 0.606 | 0.729 | 0.348 | 0.383 | 0.487 | 0.404 | 0.554 | 0.497 | 0.449 | 0.436 | 0.674 | 0.437 | 0.374 | 0.668 | 0.412 |
| ERDTVYSSSGV [NELL2_Y350_N347D] | 0.847 | 0.447 | 0.492 | 0.52 | 0.435 | 0.584 | 0.42 | 1.79 | 0.617 | 1.5 | 0.601 | 0.883 | 1.78 | 0.451 | 0.711 | 0.502 |
| EREYKYGAHKY [OAT_Y50_N54K] | 0.735 | 0.564 | 0.639 | 0.452 | 0.376 | 0.441 | 0.436 | 0.359 | 0.571 | 0.392 | 0.509 | 0.625 | 0.369 | 0.398 | 0.626 | 0.414 |
